Patent US20120213781A1
Bridges are numbered along the chain shown (N, C = ends). Where no end group is shown, it is not given here.

Biological target: recombinant human angiopoietin-2 (rhAng2) (human) (UniProt O15123)
Assay: direct ELISA on rhAng2-coated wells, detection by HRP-anti-His tag antibody, OD450

Sequence of UniProt O15123 (O15123 19-496 limits assumed): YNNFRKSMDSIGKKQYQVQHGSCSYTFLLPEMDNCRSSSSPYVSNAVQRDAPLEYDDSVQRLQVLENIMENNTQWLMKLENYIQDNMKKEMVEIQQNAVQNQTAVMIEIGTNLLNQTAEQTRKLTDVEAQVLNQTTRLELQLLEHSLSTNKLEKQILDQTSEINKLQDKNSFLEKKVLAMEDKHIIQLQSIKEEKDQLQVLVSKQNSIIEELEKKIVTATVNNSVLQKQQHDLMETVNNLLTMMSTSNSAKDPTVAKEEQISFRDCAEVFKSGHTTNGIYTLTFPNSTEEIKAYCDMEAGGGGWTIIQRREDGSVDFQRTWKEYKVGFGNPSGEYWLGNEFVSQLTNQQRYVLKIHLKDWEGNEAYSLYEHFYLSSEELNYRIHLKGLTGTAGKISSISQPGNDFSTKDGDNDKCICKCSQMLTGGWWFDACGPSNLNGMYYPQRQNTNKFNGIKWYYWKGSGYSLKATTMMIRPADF

EC50 (read off the curve) | Binder
9 nM | LWDDCYSFPNPPHCYNSP (designed binder, not shown: small tags and cut ends, disulfide 5-14 (inferred); not fully specified (N-terminus, C-terminus); also: ELP-MRD fusion, type and number of ELP repeats not given here) [Construct 13]
9 nM | LWDDCYSFPNPPHCYNSP (designed binder, not shown: small tags and cut ends, disulfide 5-14 (inferred); not fully specified (N-terminus, C-terminus); also: ELP-MRD fusion, type and number of ELP repeats not given here) [Construct 12]
